Measured values reported in the supplement of paper PMC10567573.
± gives the standard deviation.

Assay: protein stability index of a GFP-peptide fusion (GPS, HEK-293T) (PSI 1-6); higher = more stable
Settings: c terminus: a fixed tail appended
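Further: 24-mer peptide tiles fused after GFP, lentivirally expressed, FACS-sorted into six equal bins by GFP/DsRed ratio, decoded by Illumina sequencing, PSI is the read-weighted mean bin number.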

Sequence	protein stability index (treatment: DMSO)	protein stability index (treatment: MLN4924 1 uM, 8 h)
VRLHDSISEEGHHYLIFDLVTGGE [CAMK2A]	2.23 ± 0.4	2.26 ± 0.18
PSEKKVAIIRTPPKSPATPKQLRL [MAP2]	4.2 ± 0.15	4.28 ± 0.15
WLMTYVGAVFNGITLLILAELLIF [RTN3]	2.49 ± 0.28	–
KYDVKKVEEVVYDLSIRGFNKETA [TSN]	3.57 ± 0.31	3.64 ± 0.23
FDIRILMAKSVKYTVNFLEAKEGD [CARM1]	2.27 ± 0.28	2.33 ± 0.33
VPSKPPMSLEPQNGTYAGPAPAFQ [ANKRD40]	4.12 ± 0.41	4.25 ± 0.14
YYKPGLLMMCFILPTLVPWYFWGE [SCD]	3.24 ± 0.7	2.83 ± 0.52
SLGQLPLPPIPHVFSAGTGSAILP [PLAGL1]	2.82 ± 0.28	3.07 ± 0.22
LIPKTWYSAEQFCVSRNSHLTSVT [CD207]	2.17 ± 0.32	2.19 ± 0.28
YQRWIYRVDPTRVNEFGMSGEDPT [CLPTM1]	2.6 ± 0.34	2.72 ± 0.3
PLLGVKGDGKSKKKQAGRPKGSKG [RBBP5]	4.88 ± 0.15	4.88 ± 0.35
GTLCIGAAAFSQCEEWSFFHAYYY [KCNK9]	2.58 ± 0.53	2.9 ± 0.66
SEREANDALNAYVCKGLPQHEEIC [INTS3]	4.56 ± 0.23	4.52 ± 0.25
IIALIALSVGQYNCPGQYTFSMPS [CD69]	3.51 ± 0.45	3.3 ± 0.48
KLGNLMSLDISGHMILENCSISKM [ZER1]	2.1 ± 0.24	2.24 ± 0.24
LLAAGANVHATTATGDTALTYACE [ANKRD17]	4.13 ± 0.2	3.9 ± 0.23
LMSSAVPMTPEDPSFWDCFCFTEE [AASDHPPT]	3.98 ± 0.25	3.86 ± 0.23

Sequence	protein stability index (treatment: DMSO)	protein stability index (treatment: MLN4924 1 uM, 8 h)
GEENFEVVKQFVTGIIDSLTISPK [MATN2]	3.18 ± 0.2	3.32 ± 0.46
MDVGETAMVTADSKYCYGPQGSRS [FKBP8]	4.36 ± 0.31	4.51 ± 0.23
EYIVKKLSRQEFLGMVGLFGTIIS [SLC35F2]	2.43 ± 0.26	2.44 ± 0.27
GSGQNEESPRKRKKATEAIDSLRK [FBXO28]	5.11 ± 0.2	5.17 ± 0.2
KLEPMETERSPGPRLQELLGPSPQ [ZNF263]	4.43 ± 0.14	4.52 ± 0.17
YLNYYQGMLDVADESLTDLEAQPY [P3H4]	2.8 ± 0.15	2.81 ± 0.14
QCNICGKCFSCNSNLHRHQRTHTG [ZNF263]	4.44 ± 0.13	4.63 ± 0.29
LRITSGVVVCQCGLSIPSHSSELT [RPAIN]	2.56 ± 0.65	2.48 ± 0.57
ARAEQEEEFISNTLFKKIQALQKE [CCDC6]	3.48 ± 0.41	3.77 ± 0.34
PPAMPPPATHLSPALAPVPRNSCI [TRIM9]	4.39 ± 0.13	4.38 ± 0.17
QGENQEHLVIAEMMELGSRSRGAS [FATE1]	4.73 ± 0.34	4.73 ± 0.12
TRILDGGNPFLDVPQALSATTYKH [PSD2]	3.62 ± 0.17	3.73 ± 0.21
VHGDPAVWWVSQFVKYLIRPQPWL [FUT8]	2.95 ± 0.34	3.21 ± 0.6
VEVDTAPTVDLNQVLNETRSQYEA [KRT34]	5.2 ± 0.17	5 ± 0.32
QIILENQKNFGLYVQEKRDGLKRR [RAD54B]	2.41 ± 0.47	2.97 ± 0.32
VTPRTALLTWTEPPVRPAGYLLSF [TNXB]	2.42 ± 0.29	2.2 ± 0.26
